Measurements as given in patent US20250002945, “NEW TALE PROTEIN SCAFFOLDS WITH IMPROVED ON-TARGET/OFF-TARGET ACTIVITY RATIOS” (CELLECTIS SA, published 2025).

Experiments:
Test in all cases: cell_activity; T cells, mostly above 70%
Conditions in all cases: tags: SV40 NLS; FokI fusion
TIGIT left V2 TALEN = molecular target: T1, TIGIT left V2 TALEN (synthetic, UniProt Q56830 SEQ:15-719)
T1 chain: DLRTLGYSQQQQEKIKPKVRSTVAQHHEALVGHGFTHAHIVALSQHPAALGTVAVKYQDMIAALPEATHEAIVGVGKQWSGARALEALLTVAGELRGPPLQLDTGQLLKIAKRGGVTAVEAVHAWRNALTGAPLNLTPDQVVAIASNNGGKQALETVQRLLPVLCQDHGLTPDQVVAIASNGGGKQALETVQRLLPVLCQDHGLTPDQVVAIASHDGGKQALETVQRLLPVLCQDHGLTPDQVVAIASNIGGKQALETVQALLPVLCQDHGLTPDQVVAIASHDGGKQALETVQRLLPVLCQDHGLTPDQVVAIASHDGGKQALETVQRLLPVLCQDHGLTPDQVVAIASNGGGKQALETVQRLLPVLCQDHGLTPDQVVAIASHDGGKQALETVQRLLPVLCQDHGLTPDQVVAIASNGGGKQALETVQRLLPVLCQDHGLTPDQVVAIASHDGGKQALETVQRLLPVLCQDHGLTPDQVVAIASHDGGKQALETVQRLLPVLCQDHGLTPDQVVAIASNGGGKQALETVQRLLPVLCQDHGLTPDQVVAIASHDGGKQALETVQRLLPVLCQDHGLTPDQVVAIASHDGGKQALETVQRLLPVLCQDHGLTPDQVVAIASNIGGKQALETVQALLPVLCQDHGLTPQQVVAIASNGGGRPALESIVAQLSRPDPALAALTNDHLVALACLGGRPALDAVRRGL

TIGIT right V2 TALEN = molecular target: T2, TIGIT right V2 TALEN (synthetic, UniProt Q56830 SEQ:15-719)
T2 chain: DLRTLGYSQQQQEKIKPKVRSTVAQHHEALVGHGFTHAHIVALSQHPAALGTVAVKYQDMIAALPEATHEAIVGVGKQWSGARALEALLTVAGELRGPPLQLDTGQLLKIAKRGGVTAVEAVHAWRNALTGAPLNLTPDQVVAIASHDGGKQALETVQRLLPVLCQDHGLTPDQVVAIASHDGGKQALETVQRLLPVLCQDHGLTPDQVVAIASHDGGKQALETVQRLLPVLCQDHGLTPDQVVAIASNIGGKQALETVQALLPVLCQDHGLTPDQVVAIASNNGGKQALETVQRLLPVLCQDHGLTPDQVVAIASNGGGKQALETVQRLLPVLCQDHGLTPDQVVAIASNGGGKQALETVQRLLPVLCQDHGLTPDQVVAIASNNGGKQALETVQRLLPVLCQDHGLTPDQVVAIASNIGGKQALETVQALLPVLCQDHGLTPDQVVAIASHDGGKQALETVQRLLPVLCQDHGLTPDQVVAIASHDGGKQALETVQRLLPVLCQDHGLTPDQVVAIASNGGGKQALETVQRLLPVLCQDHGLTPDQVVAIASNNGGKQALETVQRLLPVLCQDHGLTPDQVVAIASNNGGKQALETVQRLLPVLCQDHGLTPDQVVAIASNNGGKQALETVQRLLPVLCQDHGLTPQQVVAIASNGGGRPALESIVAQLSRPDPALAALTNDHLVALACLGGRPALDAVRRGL

CISH (2) right V2 TALEN = molecular target: T3, CISH (2) right V2 TALEN (synthetic, UniProt Q56830 SEQ:15-719)
T3 chain: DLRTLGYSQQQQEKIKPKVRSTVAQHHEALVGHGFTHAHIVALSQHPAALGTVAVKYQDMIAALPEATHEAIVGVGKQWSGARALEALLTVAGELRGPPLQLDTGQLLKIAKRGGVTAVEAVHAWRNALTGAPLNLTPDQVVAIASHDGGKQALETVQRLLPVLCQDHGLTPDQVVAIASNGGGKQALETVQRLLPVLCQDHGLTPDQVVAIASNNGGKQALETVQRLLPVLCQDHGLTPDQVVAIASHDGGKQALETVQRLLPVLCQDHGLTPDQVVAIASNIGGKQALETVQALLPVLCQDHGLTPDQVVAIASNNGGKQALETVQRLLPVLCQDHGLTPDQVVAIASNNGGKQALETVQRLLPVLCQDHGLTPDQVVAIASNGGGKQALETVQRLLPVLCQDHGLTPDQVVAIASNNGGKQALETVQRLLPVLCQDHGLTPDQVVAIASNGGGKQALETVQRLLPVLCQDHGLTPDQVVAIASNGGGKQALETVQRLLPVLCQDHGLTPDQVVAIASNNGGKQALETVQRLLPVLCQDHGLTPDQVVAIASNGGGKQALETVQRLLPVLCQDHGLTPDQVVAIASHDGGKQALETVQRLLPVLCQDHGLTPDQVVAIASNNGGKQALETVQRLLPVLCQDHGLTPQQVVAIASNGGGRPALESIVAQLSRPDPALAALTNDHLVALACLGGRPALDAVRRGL

CISH (3) left V2 TALEN = molecular target: T4, CISH (3) left V2 TALEN (synthetic, UniProt Q56830 SEQ:15-719)
T4 chain: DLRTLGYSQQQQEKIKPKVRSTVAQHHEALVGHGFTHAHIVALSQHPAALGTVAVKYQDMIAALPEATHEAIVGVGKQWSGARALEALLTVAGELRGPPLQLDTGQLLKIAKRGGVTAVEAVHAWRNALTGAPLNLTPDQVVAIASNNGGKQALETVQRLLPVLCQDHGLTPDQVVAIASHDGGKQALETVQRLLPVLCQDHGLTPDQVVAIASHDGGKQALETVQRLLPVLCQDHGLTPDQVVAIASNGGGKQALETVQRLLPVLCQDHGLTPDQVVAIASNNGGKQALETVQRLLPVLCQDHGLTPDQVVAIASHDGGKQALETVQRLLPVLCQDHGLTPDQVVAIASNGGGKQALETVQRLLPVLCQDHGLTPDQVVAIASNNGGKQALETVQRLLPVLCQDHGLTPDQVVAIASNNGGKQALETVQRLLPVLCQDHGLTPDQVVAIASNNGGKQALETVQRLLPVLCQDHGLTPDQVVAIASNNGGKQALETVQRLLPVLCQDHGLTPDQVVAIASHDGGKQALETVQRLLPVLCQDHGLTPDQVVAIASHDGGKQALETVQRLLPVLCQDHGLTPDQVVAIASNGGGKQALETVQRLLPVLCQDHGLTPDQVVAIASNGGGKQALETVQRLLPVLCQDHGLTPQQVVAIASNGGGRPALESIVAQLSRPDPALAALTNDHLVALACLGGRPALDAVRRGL

CISH (1) left V2 TALEN = molecular target: T5, CISH (1) left V2 TALEN (synthetic, UniProt Q56830 SEQ:15-719)
T5 chain: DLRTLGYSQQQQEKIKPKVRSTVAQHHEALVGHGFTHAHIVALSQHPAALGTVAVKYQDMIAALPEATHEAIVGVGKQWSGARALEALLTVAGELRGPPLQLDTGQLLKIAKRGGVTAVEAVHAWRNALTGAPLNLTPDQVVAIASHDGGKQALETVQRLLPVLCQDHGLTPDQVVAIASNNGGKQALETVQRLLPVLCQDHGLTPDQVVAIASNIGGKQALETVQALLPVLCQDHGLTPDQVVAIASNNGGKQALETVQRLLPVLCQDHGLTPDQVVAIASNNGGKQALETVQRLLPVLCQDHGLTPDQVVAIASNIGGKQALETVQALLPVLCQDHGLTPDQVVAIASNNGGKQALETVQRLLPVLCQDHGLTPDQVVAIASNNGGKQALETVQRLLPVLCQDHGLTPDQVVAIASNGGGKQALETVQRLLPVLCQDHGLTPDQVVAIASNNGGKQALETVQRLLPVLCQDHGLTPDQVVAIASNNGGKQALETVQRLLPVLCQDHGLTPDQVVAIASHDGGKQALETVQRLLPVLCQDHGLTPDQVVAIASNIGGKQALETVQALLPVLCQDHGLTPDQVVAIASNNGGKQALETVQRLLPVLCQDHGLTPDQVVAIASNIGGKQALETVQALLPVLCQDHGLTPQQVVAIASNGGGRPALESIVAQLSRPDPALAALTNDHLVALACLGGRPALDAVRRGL

CISH (2) left V2 TALEN = molecular target: T6, CISH (2) left V2 TALEN (synthetic, UniProt Q56830 SEQ:15-719)
T6 chain: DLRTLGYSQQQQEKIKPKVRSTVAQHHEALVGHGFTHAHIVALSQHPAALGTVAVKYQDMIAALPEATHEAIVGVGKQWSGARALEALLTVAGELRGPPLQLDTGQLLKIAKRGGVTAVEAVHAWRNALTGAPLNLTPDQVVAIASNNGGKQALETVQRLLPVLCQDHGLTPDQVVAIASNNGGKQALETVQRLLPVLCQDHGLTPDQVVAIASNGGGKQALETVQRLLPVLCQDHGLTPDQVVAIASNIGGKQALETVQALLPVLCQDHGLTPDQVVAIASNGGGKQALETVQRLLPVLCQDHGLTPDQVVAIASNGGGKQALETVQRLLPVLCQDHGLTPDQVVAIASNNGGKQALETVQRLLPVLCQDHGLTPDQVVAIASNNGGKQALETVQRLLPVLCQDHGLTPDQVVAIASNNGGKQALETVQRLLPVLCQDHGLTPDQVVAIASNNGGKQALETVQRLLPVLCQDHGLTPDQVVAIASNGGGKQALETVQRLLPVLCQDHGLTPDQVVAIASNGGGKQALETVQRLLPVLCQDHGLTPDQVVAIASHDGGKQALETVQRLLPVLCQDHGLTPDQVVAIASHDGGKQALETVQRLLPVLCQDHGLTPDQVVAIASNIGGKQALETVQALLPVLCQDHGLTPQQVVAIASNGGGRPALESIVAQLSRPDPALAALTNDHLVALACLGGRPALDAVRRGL

CISH (1) right V2 TALEN = molecular target: T7, CISH (1) right V2 TALEN (synthetic, UniProt Q56830 SEQ:15-719)
T7 chain: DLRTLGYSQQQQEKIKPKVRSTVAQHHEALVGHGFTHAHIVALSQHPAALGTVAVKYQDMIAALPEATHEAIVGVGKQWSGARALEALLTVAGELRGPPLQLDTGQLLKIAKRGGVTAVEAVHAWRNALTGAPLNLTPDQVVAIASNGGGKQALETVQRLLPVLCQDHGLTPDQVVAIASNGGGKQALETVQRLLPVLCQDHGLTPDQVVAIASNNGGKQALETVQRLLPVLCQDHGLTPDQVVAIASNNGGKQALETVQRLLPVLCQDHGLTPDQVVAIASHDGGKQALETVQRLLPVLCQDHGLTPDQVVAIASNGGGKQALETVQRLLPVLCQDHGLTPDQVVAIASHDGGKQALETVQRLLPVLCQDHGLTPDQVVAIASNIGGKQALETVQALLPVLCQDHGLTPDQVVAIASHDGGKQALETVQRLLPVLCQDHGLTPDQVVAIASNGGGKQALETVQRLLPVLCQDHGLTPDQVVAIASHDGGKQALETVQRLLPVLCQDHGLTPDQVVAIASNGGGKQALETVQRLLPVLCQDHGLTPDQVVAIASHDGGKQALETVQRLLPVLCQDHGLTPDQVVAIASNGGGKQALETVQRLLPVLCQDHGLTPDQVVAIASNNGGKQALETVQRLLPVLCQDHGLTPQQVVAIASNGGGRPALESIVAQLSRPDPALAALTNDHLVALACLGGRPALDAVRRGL

B1: TIGIT left half-site (dsDNA)
DNA 1: TGTCACCTCTCCTCCAC
DNA 2: GTGGAGGAGAGGTGACA
activity (TIGIT left V2 TALEN): > 50 % indels

B2: TIGIT right half-site (dsDNA)
DNA 1: ACCCAGGTCAACTGGGA
DNA 2: TCCCAGTTGACCTGGGT
activity (TIGIT right V2 TALEN): > 50 % indels

B3: CISH (2) right half-site (dsDNA)
DNA 1: CCGACAACACCTGCAGA
DNA 2: TCTGCAGGTGTTGTCGG
activity (CISH (2) right V2 TALEN): > 50 % indels

B4: CISH (3) left half-site (dsDNA)
DNA 1: TGCCTGCTGGGGCCTTC
DNA 2: GAAGGCCCCAGCAGGCA
activity (CISH (3) left V2 TALEN): > 50 % indels

B5: CISH (1) left half-site (dsDNA)
DNA 1: TCGAGGAGGTGGCAGAG
DNA 2: CTCTGCCACCTCCTCGA
activity (CISH (1) left V2 TALEN): > 50 % indels

B6: CISH (2) left half-site (dsDNA)
DNA 1: TGGTATTGGGGTTCCAT
DNA 2: ATGGAACCCCAATACCA
activity (CISH (2) left V2 TALEN): > 50 % indels

B7: CISH (1) right half-site (dsDNA)
DNA 1: ACAGAGAGTGAGCCAAA
DNA 2: TTTGGCTCACTCTCTGT
activity (CISH (1) right V2 TALEN): > 50 % indels
